Results taken from publication PMC4096160 (Nature structural & molecular biology, 2013).

How the values were obtained:
hSTAU1^55-HA3 (human) = hSTAU1^55-HA3 (human) (UniProt O95793); assay: co-IP
[1] = molecular target: hSTAU1^55(R)Δ(SSM-‘RBD’5)-FLAG (human); assay: co-IP
SEC = molecular target: the molecule itself; assay: SEC
AUC = molecular target: the molecule itself; assay: AUC

Sequence of hSTAU1^55-HA3 (human) (O95793 82-577): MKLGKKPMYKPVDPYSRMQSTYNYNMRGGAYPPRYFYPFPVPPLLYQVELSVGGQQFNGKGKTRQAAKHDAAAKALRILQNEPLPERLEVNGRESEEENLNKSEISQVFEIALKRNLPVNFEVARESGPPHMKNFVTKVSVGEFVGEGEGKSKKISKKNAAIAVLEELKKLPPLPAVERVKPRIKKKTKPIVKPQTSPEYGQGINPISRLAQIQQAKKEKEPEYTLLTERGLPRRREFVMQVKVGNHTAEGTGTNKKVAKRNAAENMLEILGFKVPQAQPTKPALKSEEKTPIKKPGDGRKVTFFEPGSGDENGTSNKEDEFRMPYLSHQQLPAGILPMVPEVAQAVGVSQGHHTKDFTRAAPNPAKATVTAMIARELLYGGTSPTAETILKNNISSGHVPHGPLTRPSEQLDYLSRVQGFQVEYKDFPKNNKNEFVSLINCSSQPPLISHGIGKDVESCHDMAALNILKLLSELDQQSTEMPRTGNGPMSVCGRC
Sequence of hSTAU1^55-HA3 (O95793 82-577): as above

level of co-immunoprecipitation as percent of that with WT or Δ(C-Term) [1] [%] | Molecule | stoichiometry N (SEC) | further results
 | hSTAU1^55(R)Δ(SSM-‘RBD’5)-FLAG (domain or fragment) |  | level of co-immunoprecipitation as percent of that of WT or Δ(C-Term) (hSTAU1^55-HA3 (human)): 10%
10 | hSTAU1^55-HA3 (from UniProt O95793-2 1-496) (natural protein) |  | 
 | hSTAU1-‘RBD’2-RBD3 (amino acids 43–173) (domain or fragment) PLLYQVELSVGGQQFNGKGKTRQAAKHDAAAKALRILQNEPLPERLEVNGRESEEENLNKSEISQVFEIALKRNLPVNFEVARESGPPHMKNFVTKVSVGEFVGEGEGKSKKISKKNAAIAVLEELKKLPP | 2 | 
 | hSTAU1 SSM-‘RBD’5 (hSTAU1 amino acids 367–476) (domain or fragment) KATVTAMIARELLYGGTSPTAETILKNNISSGHVPHGPLTRPSEQLDYLSRVQGFQVEYKDFPKNNKNEFVSLINCSSQPPLISHGIGKDVESCHDMAALNILKLLSELD | 2 | Kd (AUC): 79 ± 9 µM
10 | cellular hUPF1 (natural protein) MSVEAYGPSSQTLTFLDTEEAELLGADTQGSEFEFTDFTLPSQTQTPPGGPGGPGGGGAGGPGGAGAGAAAGQLDAQVGPEGILQNGAVDDSVAKTSQLLAELNFEEDEEDTYYTKDLPIHACSYCGIHDPACVVYCNTSKKWFCNGRGNTSGSHIVNHLVRAKCKEVTLHKDGPLGETVLECYNCGCRNVFLLGFIPAKADSVVVLLCRQPCASQSSLKDINWDSSQWQPLIQDRCFLSWLVKIPSEQEQLRARQITAQQINKLEELWKENPSATLEDLEKPGVDEEPQHVLLRYEDAYQYQNIFGPLVKLEADYDKKLKESQTQDNITVRWDLGLNKKRIAYFTLPKTDSGNEDLVIIWLRDMRLMQGDEICLRYKGDLAPLWKGIGHVIKVPDNYGDEIAIELRSSVGAPVEVTHNFQVDFVWKSTSFDRMQSALKTFAVDETSVSGYIYHKLLGHEVEDVIIKCQLPKRFTAQGLPDLNHSQVYAVKTVLQRPLSLIQGPPGTGKTVTSATIVYHLARQGNGPVLVCAPSNIAVDQLTEKIHQTGLKVVRLCAKSREAIDSPVSFLALHNQIRNMDSMPELQKLQQLKDETGELSSADEKRYRALKRTAERELLMNADVICCTCVGAGDPRLAKMQFRSILIDESTQATEPECMVPVVLGAKQLILVGDHCQLGPVVMCKKAAKAGLSQSLFERLVVLGIRPIRLQVQYRMHPALSAFPSNIFYEGSLQNGVTAADRVKKGFDFQWPQPDKPMFFYVTQGQEEIASSGTSYLNRTEAANVEKITTKLLKAGAKPDQIGIITPYEGQRSYLVQYMQFSGSLHTKLYQEVEIASVDAFQGREKDFIILSCVRANEHQGIGFLNDPRRLNVALTRARYGVIIVGNPKALSKQPLWNHLLNYYKEQKVLVEGPLNNLRESLMQFSKPRKLVNTINPGARFMTTAMYDAREAIIPGSVYDRSSQGRPSSMYFQTHDQIGMISAGPSHVAAMNIPIPFNLVMPPMPPPGYFGQANGPAAGRGTPKGKTGRGGRQKNRFGLPGPSQTNLPNSQASQDVASQPFSQGALTQGYISMSQPSQMSQPGLSQPELSQDSYLGDEFKSQIDVALSQDSTYQGERAYQHGGVTGLSQY |  | 
